In US20210355194A1 (TWIST BIOSCIENCE, published 2021):

Target: T1, Acro SARS-CoV-2 (COVID-19) S1 protein (SARS-CoV-2, UniProt P0DTC2 16-685)
T1 construct: also called SARS-CoV-2 S1
Assay: SPR

Binder | Kd [nM]
variant 5-60 (Fc fusion) VHH: EVQLVESGGGLVQPGGSLRLSCAASGRSFSSHRMGWFRQAPGKEREFVAAIMWSGSHRNYADSVKGRFTISADNSKNTAYLQMNSLKPEDTAVYYCAAIAYEEGVYRWDWGQGTLVTVSS | 29.4
variant 5-23 (Fc fusion) VHH: EVQLVESGGGLVQPGGSLRLSCAASGSIFSIDVMGWFRQAPGKEREFVAAISWSGESTLYADSVKGRFTISADNSKNTAYLQMNSLKPEDTAVYYCAAFDGYSGSDWGQGTLVTVSS | 84.8
variant 5-3 (Fc fusion) VHH: EVQLVESGGGLVQPGGSLRLSCAASGSIFSIDVMGWFRQAPGKEREFVAGISWSGDSTLYADSVKGRFTISADNSKNTAYLQMNSLKPEDTAVYYCAAFDGYTGSDWGQGTLVTVSS | 64.6
variant 5-65 (Fc fusion) VHH: EVQLVESGGGLVQPGGSLRLSCAASGNIDRLYAMGWFRQAPGKEREGVAAIDSDGSTDYADSVKGRFTISADNSKNTAYLQMNSLKPEDTAVYYCAALIDYGLGFPIEWGQGTLVTVSS | 353
variant 5-26 (Fc fusion) VHH: EVQLVESGGGLVQPGGSLRLSCAASGRTISSYIMGWFRQAPGKERELVARIYTGGDTIYADSVKGRFTISADNSKNTAYLQMNSLKPEDTAVYYCAARTSYNGRYDYIDDYSWGQGTLVTVSS | 21800
variant 5-22 (Fc fusion) VHH: EVQLVESGGGLVQPGGSLRLSCAASGFTFNVFAMGWFRQAPGKEREFVAAINWSDSRTDYADSVKGRFTISADNSKNTAYLQMNSLKPEDTAVYYCASGSDNRARELSRYEYVWGQGTLVTVSS | 109
variant 5-13 (Fc fusion) VHH: EVQLVESGGGLVQPGGSLRLSCAASGFTFDYYTMGWFRQAPGKEREFVAAIRSSGGLFYADSVKGRFTISADNSKNTAYLQMNSLKPEDTAVYYCAAYLDGYSGSWGQGTLVTVSS | 37.5
variant 6-3 (Fc fusion, VHH-Fc) VHH: EVQLVESGGGLVQPGGSLRLSCAASGFTFSPSWMGWFRQAPGKEREFVATINEYGGRNYADSVKGRFTISADNSKNTAYLQMNSLKPEDTAVYYCARVDRDFDYWGQGTLVTVSS | 12.4
variant 6-77 (Fc fusion) VHH: EVQLVESGGGLVQPGGSLRLSCAASGFTFDRSWMGWFRQAPGKEREFVAAVTEGGTTSYADSVKGRFTISADNSKNTAYLQMNSLKPEDTAVYYCARADYDFDYWGQGTLVTVSS | 24.6
variant 6-30 (Fc fusion) VHH: EVQLVESGGGLVQPGGSLRLSCAASGFAFGDSWMGWFRQAPGKEREFVATINWSGVTAYADSVKGRFTISADNSKNTAYLQMNSLKPEDTAVYYCARADGYFDYWGQGTLVTVSS | 11.8
variant 5-42 (Fc fusion) VHH: EVQLVESGGGLVQPGGSLRLSCAASGFTPDDYAMGWFRQAPGKEREFVASIGYSGRSNSYNYYADSVKGRFTISADNSKNTAYLQMNSLKPEDTAVYYCAIAHGSSTYNWGQGTLVTVSS | 116
variant 6-4 (Fc fusion) VHH: EVQLVESGGGLVQPGGSLRLSCAASGFTRDYYTMGWFRQAPGKEREFVAAISRSGSLTSYADSVKGRFTISADNSKNTAYLQMNSLKPEDTAVYYCANLAYYDSSGYYDYWGQGTLVTVSS | 45.8
variant 5-21 (Fc fusion) VHH: EVQLVESGGGLVQPGGSLRLSCAASGGTFTTYHMGWFRQAPGKEREFVAHISTGGATNYADSVKGRFTISADNSKNTAYLQMNSLKPEDTAVYYCATFPAIVTDSDYDLGNDWGQGTLVTVSS | 1070
variant 5-67 (Fc fusion) VHH: EVQLVESGGGLVQPGGSLRLSCAASGFNVNDYAMGWFRQAPGKEREFVAGITSSVGVTNYADSVKGRFTISADNSKNTAYLQMNSLKPEDTAVYYCAADIFFVNWGRGTLVTVSS | 22.1
variant 5-29 (Fc fusion) VHH: EVQLVESGGGLVQPGGSLRLSCAASGFTFDDYPMGWFRQAPGKEREGVASVLRGGYTWYADSVKGRFTISADNSKNTAYLQMNSLKPEDTAVYYCAKDWATGLAWGQGTLVTVSS | 42.4
variant 5-27 (Fc fusion) VHH: EVQLVESGGGLVQPGGSLRLSCAASGRANSINWMGWFRQAPGKEREFVATITPGGNTNYADSVKGRFTISADNSKNTAYLQMNSLKPEDTAVYYCAAAAGSTWYGTLYEYDWGQGTLVTVSS | 92.9
variant 5-51 (Fc fusion) VHH: EVQLVESGGGLVQPGGSLRLSCAASGRPNSINWMGWFRQAPGKERQFVATITPGGNTNYADSVKGRFTISADNSKNTAYLLMNSLKPEDTAVYYCAAAAGTTWYGTLYEYDWGQGTLVTVSS | 25.5
variant 5-59 (Fc fusion) VHH: EVQLVESGGGLVQPGGSLRLSCAASGLTFSLYRMCWFRQAPGKEREEVSCISNIDGSTYYADSVKGRFTISADNSKNTAYLQMNSLKPEDTAVYYCAADLLGDSDYEPSSGFGWGQGTLVTVSS | 113

Binder | Kd [nM]
variant 6-1 (Fc fusion) VHH: EVQLVESGGGLVQPGGSLRLSCAASGRTFGNYNMGWFRQAPGKEREFVATINSLGGTSYADSVKGRFTISADNSKNTAYLQMNSLKPEDTAVYYCARVDYYMDVWGQGTLVTVSS | 35.8
variant 5-63 (Fc fusion) VHH: EVQLVESGGGLVQPGGSLRLSCAASGFSLDYYDMGWFRQAPGKEREFVAALGWSGGSTDYADSVKGRFTISADNSKNTAYLQMNSLKPEDTAVYYCAAGNGGRYGIVERWGQGTLVTVSS | 10.5
variant 5-64 (Fc fusion) VHH: EVQLVESGGGLVQPGGSLRLSCAASGTSISNRVMGWFRQAPGKERELVARIYTGGDTLYADSVKGRFTISADNSKNTAYLQMNSLKPEDTAVYYCAARKIYRSLSYYGDYDWGQGTLVTVSS | 346
variant 5-55 (Fc fusion) VHH: EVQLVESGGGLVQPGGSLRLSCAASGIDVNRNAMGWFRQAPGKEREFVAAITWSGGWRYYADSVKGRFTISADNSKNTAYLQMNSLKPEDTAVYYCATTFGDAGIPDQYDFGWGQGTLVTVSS | 63.5
variant 5-49 (Fc fusion) VHH: EVQLVESGGGLVQPGGSLRLSCAASGRTSTVNGMGWFRQAPGKEREFVASISQSGAATAYADSVKGRFTISADNSKNTAYLQMNSLKPEDTAVYYCAADRTYSYSSTGYYWGQGTLVTVSS | 74.5
variant 5-28 (Fc fusion) VHH: EVQLVESGGGLVQPGGSLRLSCAASGGTFSVFAMGWFRQVPGKERELVAEITAGGSTYYADSVKGRFTISADNSKNTAYLQMNSLKPEDTAVYYCAVDGPFGWGQGTLVTVSS | 40
variant 5-50 (Fc fusion) VHH: EVQLVESGGGLVQPGGSLRLSCAASGFSLDYYGMGWFRQAPGKEREFVAAITSGGTPHYADSVKGRFTISADNSKNTAYLQMNSLKPEDTAVYYCASAYNPGIGYDWGQGTLVTVSS | 60.5
variant 5-32 (Fc fusion) VHH: EVQLVESGGGLVQPGGSLRLSCAASGFTPDNYAMGWFRQAPGKEREFVAALGWSGVTTYHYYADSVKGRFTISADNSKNTAYLQMNSLKPEDTAVYYCASDESDAANWGQGTLVTVSS | 22.4
variant 5-47 (Fc fusion) VHH: EVQLVESGGGLVQPGGSLRLSCAASGFTFGSYDMGWFRQAPGKEREFVTAINWSGARTAYADSVKGRFTISADNSKNTAYLQMNSLKPEDTAVYYCAARSVYSYEYNWGQGTLVTVSS | 27.7
variant 5-52 (Fc fusion) VHH: EVQLVESGGGLVQPGGSLRLSCAASGEKFSDHWMGWFRQAPGKEREFVATITFSGARTAYADSVKGRFTISADNSKNTAYLQMNSLKPEDTAVYYCAALIKPSSTDRIFEEWGQGTLVTVSS | 99
variant 5-15 (Fc fusion) VHH: EVQLVESGGGLVQPGGSLRLSCAASGFTFDGAAMGWFRQAPGKEREFVATIRWTNSTDYADSVKGRFTISADNSKNTAYLQMNSLKPEDTAVYYCARGRYGIVERWGQGTLVTVSS | 96.2
variant 5-56 (Fc fusion) VHH: EVQLVESGGGLVQPGGSLRLSCAASGRTFSSNMGWFRQAPGKEREFVARIFGGDRTLYADSVKGRFTISADNSKNTAYLQMNSLKPEDTAVYYCADINGDWGQGTLVTVSS | 54.3
variant 5-17 (Fc fusion) VHH: EVQLVESGGGLVQPGGSLRLSCAASGPTFSIYAMGWFRQAPGKEREFVAGIRWSDVYTQYADSVKGRFTISADNSKNTAYLQMNSLKPEDTAVYYCALDIDYRDWGQGTLVTVSS | 3630
variant 5-39 (Fc fusion) VHH: EVQLVESGGGLVQPGGSLRLSCAASGVTLDLYAMGWFRQAPGKEREFVAGIRWTDAYTEYADSVKGRFTISADNSKNTAYLQMNSLKPEDTAVYYCAVDIDYRDWGQGTLVTVSS | 118
variant 5-68 (Fc fusion) VHH: EVQLVESGGGLVQPGGSLRLSCAASGFTFDHYTMGWFRQAPGKEREFVAAISGSENVTSYADSVKGRFTISADNSKNTAYLQMNSLKPEDTAVYYCAAEPYIPVRTMRHMTFLTWGQGTLVTVSS | 111
variant 5-16 (Fc fusion) VHH: EVQLVESGGGLVQPGGSLRLSCAASGRTHSIYPMGWFRQAPGKERELVAAIHSGGATVYADSVKGRFTISADNSKNTAYLQMNSLKPEDTAVYYCAARRWIPPGPIWGQGTLVTVSS | 50.2
variant 6-2 (Fc fusion) VHH: EVQLVESGGGLVQPGGSLRLSCAASGFTMSSSWMGWFRQAPGKEREFVTVISGVGTSYADSVKGRFTISADNSKNTAYLQMNSLKPEDTAVYYCARGPDSSGYGFDYWGQGTLVTVSS | 29.9
